Substrate in this data set: COc1cccc(OC)c1O
The data set can be described thus: purified protein. The format is biochemical, Escherichia coli. The conditions noted are these: soluble enzyme, 20 mM Tris pH 6.5, 10 μM Cu2+, 30 °C.

B1: BioF–CueO (CueO laccase-like multicopper oxidase fused to BioF tag) (Escherichia coli K-12) (protein)
chain: AERPTLPIPDLLTTDARNRIQLTIGAGQSTFGGKTATTWGYNGNLLGPAVKLQRGKAVTVDIYNQLTEETTLHWHGLEVPGEVDGGPQGIIPPGGKRSVTLNVDQPAATCWFHPHQHGKTGRQVAMGLAGLVVIEDDEILKLMLPKQWGIDDVPVIVQDKKFSADGQIDYQLDVMTAAVGWFGDTLLTNGAIYPQHAAPRGWLRLRLLNGCNARSLNFATSDNRPLYVIASDGGLLPEPVKVSELPVLMGERFEVLVEVNDNKPFDLVTLPVSQMGMAIAPFDKPHPVMRIQPIAISASGALPDTLSSLPALPSLEGLTVRKLQLSMDPMLDMMGMQMLMEKYGDQAMAGMDHSQMMGHMGHGNMNHMNHGGKFDFHHANKINGQAFDMNKPMFAAAKGQYERWVISGVGDMMLHPFHIHGTQFRILSENGKPPAAHRAGWKDTVKVEGNVSEVLVKFNHDAPKEHAYMAHCHLLEHEDTGMMLGFTV
notes: signal peptide absent (the primer starts at mature Ala-Glu-Arg-Pro-Thr); cueO amplified from pCueO (pASK-IBA3 derivative); plasmid pDB2 (pET-21d); expressed in E. coli BL21(DE3), butyl sepharose; tag kept
B1: the Km was 400 ± 100 µM, the turnover number (kcat) was 4.3 ± 0.1 s⁻¹ and the kcat/Km was determined as 10700 M⁻¹ s⁻¹.

The Km is the substrate concentration at which the rate is half of its maximum. Usually kcat stands for the number of substrate molecules converted per active site and unit of time at saturation. The kcat/Km is the second-order rate constant that governs catalysis at low substrate concentration.
